In paper PMC4766306, “CYP96T1 of Narcissus sp. aff. pseudonarcissus Catalyzes Formation of the Para-Para' C-C Phenol Couple in the Amaryllidaceae Alkaloids” (Frontiers in Plant Science, 2016):

Tests used:
Assay type in all cases: cell-based, Narcissus aff. pseudonarcissus MK-2014
Conditions in all cases: heme
[1] = substrate: COc1cc2c(cc1O)[C@@H](Cc1ccc(O)cc1)NCC2; assay: LC-MS/MS enzyme kinetics with Sf9-expressed CYP96T1
[2] = substrate: COc1cc2c(cc1O)[C@H](Cc1ccc(O)cc1)NCC2; assay: as above
[3] = substrate: COc1ccc(CNCCc2ccc(O)cc2)cc1O; assay: LC-MS/MS enzyme kinetics with Sf9-expressed CYP96T1; CPR-only negative control
[4] = substrate: COc1ccc(CN(C)CCc2ccc(O)cc2)cc1O; assay: as above

B1: CYP96T1 (Narcissus aff. pseudonarcissus MK-2014) (protein)
chain: MATSSSAWLMFSDHYPEILIAIACFLIFSLLLSARSSSEDSLPYNWPIFGMLPAIISNNQFNDFTTARLRKMGWTFIFKGPWLLDMDYIFTCDPSNINHMFNDNFENYPKGELGKVFDIFGNNIFNADGDLWHDHRKMAQTILWDGNYRTMQATFIRNKMDNALIPILDSAASKRKPVDLQDVFFRFTFDTSCFSVLAADPESLTMEFPAVPFSKAADQALDAALTRHITPRLIWKLKRFFNVGSERTLAVAWKVIDSYIYDKIAELKAKRKLVGKINSYDAVSFYMDNFNIHDDKFLRDNAFTYLLAQRNTQSLTMTWLFYALFENPKVELKILSELKSIVDESSERKFNDGFALFDSNMIQSAIYLHATLCEALRIYPPVPFEIKDAHKADVLPSGHKVRAGEKILFSPYAMARMKGIWGDDCLEFKPERWITGNGTLKHEPAYKFFAFSAGPRICLGKELSFTQMKMVVATIIYNFHLQMVKGHVVEQSNSILMDMKHGLMVQVRKRSVM
notes: CYP96T1 ORF (GenBank KT693311) expressed in Sf9 cells, co-expressed with Eschscholzia californica CPR
Km [1]: 659 ± 104 µM
kcat [1]: 0.0345 ± 0.00233 s⁻¹
kcat/Km [1]: 52.5 M⁻¹ s⁻¹
Km [2]: 637 ± 156 µM
kcat [2]: 0.0223 ± 0.0025 s⁻¹
kcat/Km [2]: 35.2 M⁻¹ s⁻¹
Km [3]: 1.13 ± 0.54 µM
kcat [3]: 0.25 ± 0.0338 s⁻¹
kcat/Km [3]: 217000 M⁻¹ s⁻¹
Km [4]: 3.28 ± 2.27 µM
kcat [4]: 0.0407 ± 0.009 s⁻¹
kcat/Km [4]: 12400 M⁻¹ s⁻¹
